The chains are these.
B1: Eterna 7741440 (Same State - Theophylline A) (ssRNA)
RNA: GGAGUGAUGUUCCAUUUUUAAAUCUCCGAUACCAGUAUGGAAACAUACCCUUGGCAGCGGUAAACCGCAGAUUAGGAAACUAGUC
B2: Eterna 5984275 (Exclusion 4) (ssRNA)
RNA: AUUGUGUGAGGAUAUUAGCAGUAGACGAAUGGAGUCGUGGCUGAGAAGGCACAUGAGGAUCACCCAUGUUCCUU
B3: Eterna 7734716 (Exclusion - FMN B) (ssRNA)
RNA: GGAUAGGACACAGGAUAUGGUAGUGAUGUUACCAAACUGGUUAAACAUGUCAGAAAACUGGCAUGACCAGAAGGGUGUCCUAUCG
B4: Eterna 7653871 (Same State - Theophylline B) (ssRNA)
RNA: UGUAUGUGAUUUGAUACCAGACCAGCUGGUGGUGCAUGAGGAACACCCAUGCAGGUUUGGGUCCCUUGGCAGCAAAUCGCAUACU
B5: Eterna 7653873 (Same State - Theophylline B) (ssRNA)
RNA: UGUAUGUGAUUUGAUACCAGACCAGCUGGUGGUCCAUGAGGAACACCCAUGGAGGUUUGGGUCCCUUGGCAGCAAAUCGCAUACU
B6: Eterna 5982897 (Exclusion 6) (ssRNA)
RNA: GCAUGCUCCGAGGAUAUCGAAGCUAAUUAUGCACGAGAAGGCGGAACAUGAGGAUCACCCAUGUGAUGCCUAAA
B7: Eterna 7745160 (Same State - Arginine B) (ssRNA)
RNA: GUUAAGUCGCGAAGGAGCGCGAACUAACAACGCAGUGAUGUUGCGUUGUACGUAGUAUAAUCGCAGGUAGGUCGCGCGACAGGCC
B8: Eterna 6381991 (Exclusion NG 1) (ssRNA)
RNA: AUGCUUUAUGUAGGAUAUGCAUACGGUACGUAUGCAGAAGGACAUGAGGAUCACCCAUGUAAAUUAUUAUUACAUAUCAUACAU
B9: Eterna 7736465 (Same State - FMN A) (ssRNA)
RNA: UUUCUUUUCUUUUGCGAUCCUAUCCCUUAUAAGGAUAUCUAGAAAUAGAGAAGGUAUGCAGUGAUGUUGCUUGGGAUAGGAUCGC
B10: Eterna 7609491 (Same State - Tryptophan A) (ssRNA)
RNA: ACAUGAGGAUCACCCAUGUUUGUUGUUCCUCGAGGACCGGUACGGCCGCCACUCGAACGAGUGGCACGCGAGUGCGCACUCGCGU
B11: Eterna 6095051 (Same State NG 3) (ssRNA)
RNA: UUAACAUGAGGAUCACCCAUGUAAAGAACGGUUAAUUAAAGUGAGGAUAUACAAAAUUUUAUAUUGUAGAAGGCACUGGGUACA
B12: Eterna 1038 (Exclusion - FMN A) (ssRNA)
RNA: UCACCGCCUAGUGAUGUUACGCGACUCAGAAAGGAUAUAAUCAAUCUUAGAAGGUUCACACCGUAUGGAUAUUAUCUAUCUCGUU
B13: Eterna 7730292 (Same State - Arginine B) (ssRNA)
RNA: UGUAUGGACUGAAGGAGCGGAAAAUAAACCUGAGGAUCACCCGGGUAAUAGGCGAAAGCCAUCCAGGUAGGUCGCAGUCCAUACU
B14: Eterna 7722704 (Same State - FMN A) (ssRNA)
RNA: GGCAGUGAUGUUGCCUAAGCAACGCAUGCAGAGGAUAUUCGUUCGGGAAGAAGGCUGCAGCGUUCUCUCGUCAGUGAUGUUGGCG
B15: Eterna 7730917 (Exclusion - Tryptophan A) (ssRNA)
RNA: AGACUGUCUUCGGACAGUCCGGACAGCCCGCGAGGACCGGUACGGCCGCCACUCGCGUGAGGAUCACCCAUGCGAGGCUGUCCGA
B16: Eterna 7673920 (Same State - Theophylline B) (ssRNA)
RNA: UGUAUGUGAUCUGAUACCAGCGUUGAUAACCUGAGGAUCACCCUGGUAAGGCGAAAGCCACGCCCUUGGCAGCAGAUCGCAUACU
B17: Eterna 7739340 (Same State - Theophylline A) (ssRNA)
RNA: ACCAUCAAAGAUGGCCAGGACUCAACUGAUACCAGAGUGGAGACACUCCCUUGGCAGCAGGUGAGUGAUGUUCACGAGUCCUGGA
B18: Eterna 6073973 (Exclusion 2) (ssRNA)
RNA: UAGAUGGGAGGAUAUACGUAUAUGCAGGUUCGUGUGGUGCUACAUGAGGAUCACCCAUGUAGAAGGCCCGUCUU
B19: Eterna 6439566 (Inverted Small Loop Same State NG 1) (ssRNA)
RNA: GGACAUUUACAGAAGGGCAAGCUCGAAAGCGGAGAACGCGAACGAGCUUGCAGGAUAUGUUGAACAUGAGGAUCACCCAUGUCU
B20: Eterna 7691377 (Same State - Tryptophan B) (ssRNA)
RNA: UAUCUAUGCUCGGCCGCCACUAGGACCGGGAGGUAACUAGUGAUGUUAGUAUCUUCGGCCGCCACUAGGACCGGGAGUGUAGAUA
B21: Eterna 6433398 (Small Loop Exclusion NG 3) (ssRNA)
RNA: UGAUCGAGAGAUCUUAGAUUCUGGUAGGAUAUACAUUAUAAAAGCUUUACAUGAGGAUCACCCAUGUAGAAGGACUAGAGUCUA
B22: Eterna 7739457 (Exclusion - Theophylline B) (ssRNA)
RNA: UUAUAUAUAUUAGAUACCAGUUUAAUGGAAACAAAUUAUGUUAUGAGUGAUGUUCAUGUAAGCCCUUGGCAGCUGGUAUGGGUUU
B23: Eterna 7610184 (Exclusion - Tryptophan B) (ssRNA)
RNA: GGAGCUACGUCGGCCGCCACUAGCGGGUAUUGCGUGUACAUGAGGAUCACCCAUGUAAUACGGCCUAGGACCGGGACGUAGCUCC
B24: Eterna 6095017 (Exclusion NG 3) (ssRNA)
RNA: AAGGACUGUAAUAAUGUAGAAAUACAUGAGGAUCACCCAUGUAAGGAUAUCGUCAGGAAUACUGACGAGAAGGUACAUCAGUCC
B25: Eterna 6428572 (Exclusion NG 2) (ssRNA)
RNA: GUCUCCGCUCGAGGAUAUAGCUGCAUGUAGUGUCCUGAGGCACAUGAGGAUCACCCAUGUGUAGGCUAGAAGGCGACGGACACU
B26: Eterna 6055371 (Brourd's mod of Exclusion 4) (ssRNA)
RNA: GAUCGCCAUGUCAGGAUAUCUUGUAUACCCACGUUAGAGAAGGGACAUGAGGAUCACCCAUGUACCCUGGUUUU
B27: Eterna 6429522 (Inverted Exclusion NG 3) (ssRNA)
RNA: GUGGAUAGACGCCCACGUGAGACAUGAGGAUCACCCAUGUACAGAAGGUGGAGCGUUAAUGGUGCCAAGGAUAUGUACAUAAGG
B28: Eterna 7730095 (Same State - Theophylline B) (ssRNA)
RNA: UGUAUGUGAUCUGAUACCAGUCCAACUGGUAAACCAUGAGGAUCACCCAUGGAAAAUUGGGACCCUUGGCAGCAGAUCGCAUACU
B29: Eterna 9910 (Sensor v3, turn-off variant 1) (ssRNA)
RNA: GAUUAUGCAAGCUUUCGGGACAUGAGGAUCACCCAUGUUCGUCUUAUUGAUCUAGGUACGCUGACGUACCUAGAUCU
B30: Eterna 7729933 (Exclusion - Tryptophan B) (ssRNA)
RNA: GGAUAGGACACGGCCGCCACUUGCUAGGAUACUAGCAACAUUUCCUCUCAUGAGGAUCACCCAUGAAGGACCGGGUGUCCUAUCG
B31: Eterna 1619 (Same State - Theophylline A) (ssRNA)
RNA: GUGUAAGUGAUGUUUGCACACACGUCGGAUACCAGAGACUUUAGCCUCCCUUGGCAGCCGCCGGCCAUAAGAGCAAGUCGAUUUA
B32: Eterna 7675501 (Same State - Theophylline B) (ssRNA)
RNA: CCAUCGCUAUUCGAUACCAGUCAUAAAAUCUUUGGUUAAAUAAAGGAGUGAUGUUCCAAAGACCCUUGGCAGCGAAUAGUGAUGG
B33: Eterna 7716400 (Same State - Theophylline B) (ssRNA)
RNA: AUUUGUUUAUGUGAUACCAGACUAAGCAGUGAUGUUGCUUUUAUUUUUGAAUUUUAAAUAGUCCCUUGGCAGCACUAUGUCUGUA
B34: Eterna 6441202 (Exclusion NG 1) (ssRNA)
RNA: ACAUUUUAUGCAGGAUAUUGACAUAGGAUUAAACAAGAAGGGCAUUACAUGAGGAUCACCCAUGUUUUAUUGGUAUAUAAGUUC
B35: Eterna 7734762 (Same State - FMN B) (ssRNA)
RNA: UGUACCGAGUAAGGAUAUGUCGUCGAAAGACGAAAUGGAGUGAUGUUCCUUAAACUGCGAAAGCAGACAGAAGGUACUUGGUACU
B36: Eterna 7758792 (Exclusion - Tryptophan B) (ssRNA)
RNA: UGAUACCAGACGGCCGCCACUCCCGUAAGUCAAAGACUUACGAAGAGGGUUUUUCAGUGAUGUUGGAGGACCGGGUCUGGUAUCU
B37: Eterna 1225 (Exclusion - Tryptophan A) (ssRNA)
RNA: GGAGGCCAGGCCUGCGAAGUGAUGUUUUGACGAGGACCGGUACGGCCGCCACUCGAAUGUUCUAUCAUCGUACGAACUUCUGCGU
B38: Eterna 6146924 (Exclusion NG 1) (ssRNA)
RNA: GUGACGGAUGUAGGAUAUGCUGACCAAUGGUCAGCAGAAGGACAUGAGGAUCACCCAUGUCAUCCUUAUAAUAAAUACCGUCAC
B39: Eterna 7696080 (Exclusion - Tryptophan B) (ssRNA)
RNA: UGAUACCAGACGGCCGCCACUAGGACCGGGAGUGAUGUUCCCAAUUUAAAAUGCUCGGCCGCCACUAGGACCGGGUCUGGUAUCU

Bounds are passed on as bounds.

The target of the data set is MS2 coat protein, dlFG mutant (Escherichia phage MS2, UniProt P03612, del68-81insG). Put plainly: 4 mM Mg2+; no ligand; RNA-MaP array; 100 mM Tris-HCl pH 7.5, 80 mM KCl, 4 mM MgCl2, 0.1 mg/mL BSA, 1 mM DTT, 0.01 mg/mL yeast tRNA, 0.01% Tween-20; protein 1.5 nM to 3 uM; 37 C (Table S3). The note with it: chain copies: 2; label: tethered by stalled RNA polymerase.
On to B1, for which the equilibrium dissociation constant (Kd) was greater than 3000 nM.
Regarding B2, the dissociation constant (Kd) worked out at 16.8 nM.
B3 showed a Kd greater than 3000 nM.
Under B4 stands 145 nM.
For B5, binding was characterised by a dissociation constant (Kd) of 83.2 nM.
Next, B6: 14.4 nM; B7: greater than 3000 nM; B8: 10.9 nM.
B9: the Kd was greater than 3000 nM.
Molecule B10 gave a Kd of 12.3 nM.
For B11, binding was characterised by a dissociation constant (Kd) of 19.5 nM.
As for B12, the Kd is greater than 3000 nM.
With B13, the affinity, expressed as Kd, was 279 nM.
The molecule B14 displayed a Kd greater than 3000 nM.
Next, B15: 34.7 nM; B16: 193 nM; B17: greater than 3000 nM.
Under B18 stands 19.1 nM; under B19, 8.1 nM; under B20, greater than 3000 nM.
B21 returned a Kd of 6.84 nM.
Under B22 stands greater than 3000 nM; under B23, 12 nM.
Next, B24: 16.5 nM; B25: 11 nM; B26: 15.4 nM.
As to B27, the Kd came to 4.92 nM.
Next, B28: 310 nM; B29: 16.5 nM.
The molecule B30 showed a Kd of 20.8 nM.
B31 came in with a Kd greater than 3000 nM.
Under B32 stands greater than 3000 nM; under B33, greater than 3000 nM; under B34, 15.5 nM.
B35 displayed a Kd greater than 3000 nM.
For the molecule B36, the dissociation constant Kd is greater than 3000 nM.
The molecule B37 registered a Kd greater than 3000 nM.
Under B38 stands 13.7 nM; under B39, greater than 3000 nM.

As a reminder, the Kd is a measure of binding affinity in units of concentration. A higher Kd goes with lower affinity.

These data come from article PMC9170038.
